The numbers were not newly measured in PMC8745080, which cites them from elsewhere.

For data set [1], the target named is T1, His98 (UniProt position 99, NFPNYHQTSEI). The data set can be described thus: NMR. Particulars: apo (ligand-free), folded.
The target of data set [2] is T1, His98. The data set can be described thus: not stated (NMR inferred from the apo data of the same reference). Particulars: holo (bile-salt-bound; identity of the bound bile salts not given), folded.
Data set [3] has as its target His98 (UniProt position 99, SEKFSHEQEVK). The data set can be described thus: not stated (the review mentions pH-dependent NMR measurements on cL-BABP in the same section). Particulars: apo (ligand-free), folded.

For the substance “Human ileal bile acid-binding protein (hI-BABP; gastrotropin, FABP6), common isoform (Homo sapiens)”, the pKa (in general, the pH at which an ionisable group is half protonated) in data set [1] was 6.6; in data set [2], 7.0.
As to “Chicken liver bile acid-binding protein (cL-BABP; liver basic fatty acid-binding protein) (Gallus gallus)”, in data set [3], the pKa is on record as 4.7.
